{"source": "paper PMC3138255", "about": "(The Journal of Biological Chemistry, 2011)", "key": {"[1]": {"target": "Rnd1 GTPase as used in the quoted work (ref 39, Hota & Buck 2009) (UniProt Q92730)", "sequence (Q92730 whole entry)": "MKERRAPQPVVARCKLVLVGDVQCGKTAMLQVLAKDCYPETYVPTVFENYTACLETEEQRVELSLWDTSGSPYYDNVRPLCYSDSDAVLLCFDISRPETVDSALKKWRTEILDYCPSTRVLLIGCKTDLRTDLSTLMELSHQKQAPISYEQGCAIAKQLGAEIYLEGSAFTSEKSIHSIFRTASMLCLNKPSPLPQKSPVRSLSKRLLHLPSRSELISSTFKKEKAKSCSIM", "assay": "Not stated in this article", "conditions": "cited from earlier work"}, "[2]": {"target": "Rnd1 GTPase (residues 5-200), loaded with GMPPNP (UniProt Q92730)", "assay": "ITC + SPR"}, "[3]": {"target": "Rnd2 GTPase (residues 1-227), loaded with GMPPNP (UniProt P52198)", "assay": "ITC + SPR"}, "[4]": {"target": "Rnd1 GTPase, wild type, construct of this paper (UniProt Q92730)", "sequence (Q92730 whole entry)": "as above", "assay": "Isothermal titration calorimetry", "conditions": "pH 7.0, 25 °C, 50 mM NaCl, 4 mM MgCl2, 50 mM phosphate buffer"}, "SEC": {"target": "the molecule itself", "assay": "SEC"}, "[5]": {"target": "T1, Rnd2 GTPase (residues 1-227), loaded with GMPPNP (UniProt P52198 1-227)", "T1 sequence (looked up)": "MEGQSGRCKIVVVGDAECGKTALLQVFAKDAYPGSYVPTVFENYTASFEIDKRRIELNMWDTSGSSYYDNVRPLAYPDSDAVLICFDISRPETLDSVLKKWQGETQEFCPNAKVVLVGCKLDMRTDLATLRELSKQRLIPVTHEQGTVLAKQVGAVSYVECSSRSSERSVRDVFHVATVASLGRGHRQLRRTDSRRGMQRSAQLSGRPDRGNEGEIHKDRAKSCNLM", "assay": "ITC"}, "[6]": {"target": "T2, Rnd1 GTPase (residues 5-200), loaded with GMPPNP (UniProt Q92730 5-200)", "T2 sequence (looked up)": "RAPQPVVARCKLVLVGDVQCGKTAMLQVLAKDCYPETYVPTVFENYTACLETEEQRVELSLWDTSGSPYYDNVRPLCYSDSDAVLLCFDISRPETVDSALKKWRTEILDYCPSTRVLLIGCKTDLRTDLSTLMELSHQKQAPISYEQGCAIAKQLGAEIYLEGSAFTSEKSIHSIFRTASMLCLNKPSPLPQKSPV", "assay": "ITC"}, "Rnd1 GTPase Y114F": {"target": "T3, Rnd1 GTPase Y114F (UniProt Q92730 5-200, Y114F)", "T3 sequence (looked up)": "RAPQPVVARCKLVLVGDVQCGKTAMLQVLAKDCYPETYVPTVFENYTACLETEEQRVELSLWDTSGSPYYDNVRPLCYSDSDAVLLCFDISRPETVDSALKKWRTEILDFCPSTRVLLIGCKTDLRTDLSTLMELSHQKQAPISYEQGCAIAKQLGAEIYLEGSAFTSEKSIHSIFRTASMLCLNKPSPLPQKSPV", "assay": "ITC"}}}
{"molecule": "Plexin-B1 RBD as used in the quoted work (ref 39, Hota & Buck 2009)", "values": [{"measurement": "Kd", "setting": "[1]; pH 6.4", "result": "∼3.1 μM"}, {"measurement": "Kd", "setting": "[1]; pH 6.8", "result": "∼5.5 μM"}]}
{"molecule": "plexin-C1 Rho GTPase binding domain (RBD), residues 1198-1305 (from UniProt O60486 1198-1305) (domain or fragment)", "values": [{"measurement": "Kd", "setting": "[2]", "result": "> 50", "unit": "µM"}, {"measurement": "Kd", "setting": "[3]", "result": "> 50", "unit": "µM"}]}
{"molecule": "Plexin-B1 Rho GTPase binding domain (RBD), wild type, construct of this paper", "values": [{"measurement": "Ka", "setting": "[4]", "result": "1.8 10^5 M^-1"}, {"measurement": "Kd", "setting": "[4]", "result": 5.5, "unit": "µM"}, {"measurement": "ΔG", "setting": "[4]", "result": -7.1, "unit": "kcal/mol"}]}
{"molecule": "plexin-A2 Rho GTPase binding domain (RBD), residues 1490-1600 (domain or fragment, human, UniProt O75051 1490-1600, looked up) LIRQQIEYKTLILNCVNPDNENSPEIPVKVLNCDTITQVKEKILDAVYKNVPYSQRPRAVDMDLEWRQGRIARVVLQDEDITTKIEGDWKRLNTLMHYQVSDRSVVALVPK", "values": [{"measurement": "stoichiometry N", "setting": "SEC", "result": 2}, {"measurement": "Ka", "setting": "[5]", "result": 90000, "unit": "M⁻¹"}, {"measurement": "Kd", "setting": "[5]", "result": 10.7, "unit": "µM"}, {"measurement": "dH", "setting": "[5]", "result": -1.2, "unit": "kcal/mol"}, {"measurement": "Ka", "setting": "[6]", "result": 140000, "unit": "M⁻¹"}, {"measurement": "Kd", "setting": "[6]", "result": 7, "unit": "µM"}, {"measurement": "dH", "setting": "[6]", "result": -8, "unit": "kcal/mol"}, {"measurement": "Ka", "setting": "Rnd1 GTPase Y114F", "result": 100000, "unit": "M⁻¹"}, {"measurement": "Kd", "setting": "Rnd1 GTPase Y114F", "result": 10, "unit": "µM"}, {"measurement": "dH", "setting": "Rnd1 GTPase Y114F", "result": -4.1, "unit": "kcal/mol"}]}
{"molecule": "plexin-C1 RBD K1267L (domain or fragment) TVALNVVFEKIPENESADVCRNISVNVLDCDTIGQAKEKIFQAFLSKNGSPYGLQLNEIGLELQMGTRQLELLDIDSSSVILEDGITKLNTIGHYEISNGSTIKVFKK", "values": [{"measurement": "Ka", "setting": "[5]", "result": 90000, "unit": "M⁻¹"}, {"measurement": "Kd", "setting": "[5]", "result": 11.1, "unit": "µM"}, {"measurement": "dH", "setting": "[5]", "result": -0.6, "unit": "kcal/mol"}, {"measurement": "Ka", "setting": "[6]", "result": 100000, "unit": "M⁻¹"}, {"measurement": "Kd", "setting": "[6]", "result": 10, "unit": "µM"}, {"measurement": "dH", "setting": "[6]", "result": -1.9, "unit": "kcal/mol"}]}
{"molecule": "plexin-C1 RBD T1264V/R1265V (domain or fragment) TVALNVVFEKIPENESADVCRNISVNVLDCDTIGQAKEKIFQAFLSKNGSPYGLQLNEIGLELQMGVVQKELLDIDSSSVILEDGITKLNTIGHYEISNGSTIKVFKK", "values": [{"measurement": "Ka", "setting": "[5]", "result": 120000, "unit": "M⁻¹"}, {"measurement": "Kd", "setting": "[5]", "result": 8.3, "unit": "µM"}, {"measurement": "dH", "setting": "[5]", "result": -1.5, "unit": "kcal/mol"}, {"measurement": "Ka", "setting": "[6]", "result": 360000, "unit": "M⁻¹"}, {"measurement": "Kd", "setting": "[6]", "result": 2.6, "unit": "µM"}, {"measurement": "dH", "setting": "[6]", "result": -3.4, "unit": "kcal/mol"}]}
{"molecule": "plexin-D1 RBD Y1618L (domain or fragment) AKPRNLNVSFQGCGMDSLSVRAMDTDTLTQVKEKILEAFCKNVPYSQWPRAEDVDLEWFASSTQSLILRDLDDTSVVEDGRKKLNTLAHYKIPEGASLAMSLIDKKDNTLGRVKDLDTEKYFHLVL", "values": [{"measurement": "Ka", "setting": "[5]", "result": 70000, "unit": "M⁻¹"}, {"measurement": "Kd", "setting": "[5]", "result": 14.2, "unit": "µM"}, {"measurement": "dH", "setting": "[5]", "result": -1.6, "unit": "kcal/mol"}, {"measurement": "Ka", "setting": "[6]", "result": 190000, "unit": "M⁻¹"}, {"measurement": "Kd", "setting": "[6]", "result": 5.2, "unit": "µM"}, {"measurement": "dH", "setting": "[6]", "result": -3.1, "unit": "kcal/mol"}]}
{"molecule": "plexin-D1 RBD S1614V/T1615A (domain or fragment) AKPRNLNVSFQGCGMDSLSVRAMDTDTLTQVKEKILEAFCKNVPYSQWPRAEDVDLEWFASVAQSYILRDLDDTSVVEDGRKKLNTLAHYKIPEGASLAMSLIDKKDNTLGRVKDLDTEKYFHLVL", "values": [{"measurement": "Ka", "setting": "[5]", "result": 130000, "unit": "M⁻¹"}, {"measurement": "Kd", "setting": "[5]", "result": 7.7, "unit": "µM"}, {"measurement": "dH", "setting": "[5]", "result": -1.4, "unit": "kcal/mol"}, {"measurement": "Ka", "setting": "[6]", "result": 50000, "unit": "M⁻¹"}, {"measurement": "Kd", "setting": "[6]", "result": 20, "unit": "µM"}, {"measurement": "dH", "setting": "[6]", "result": 1.3, "unit": "kcal/mol"}]}
{"molecule": "plexin-B1 Rho GTPase binding domain (RBD), residues 1746-1852 (domain or fragment, human, UniProt O43157 1746-1852, looked up) YRPLTLNALLAVGPGAGEAQGVPVKVLDCDTISQAKEKMLDQLYKGVPLTQRPDPRTLDVEWRSGVAGHLILSDEDVTSEVQGLWRRLNTLQHYKVPDGATVALVPC", "values": [{"measurement": "Ka", "setting": "[5]", "result": 40000, "unit": "M⁻¹"}, {"measurement": "Kd", "setting": "[5]", "result": "> 20", "unit": "µM"}, {"measurement": "dH", "setting": "[5]", "result": -0.2, "unit": "kcal/mol"}, {"measurement": "Ka", "setting": "[6]", "result": 180000, "unit": "M⁻¹"}, {"measurement": "Kd", "setting": "[6]", "result": 5.5, "unit": "µM"}, {"measurement": "dH", "setting": "[6]", "result": -6.7, "unit": "kcal/mol"}, {"measurement": "Ka", "setting": "Rnd1 GTPase Y114F", "result": 180000, "unit": "M⁻¹"}, {"measurement": "Kd", "setting": "Rnd1 GTPase Y114F", "result": 5.5, "unit": "µM"}, {"measurement": "dH", "setting": "Rnd1 GTPase Y114F", "result": -2.5, "unit": "kcal/mol"}]}
{"molecule": "plexin-B1 RBD L1815K (domain or fragment) YRPLTLNALLAVGPGAGEAQGVPVKVLDCDTISQAKEKMLDQLYKGVPLTQRPDPRTLDVEWRSGVAGHKILSDEDVTSEVQGLWRRLNTLQHYKVPDGATVALVPC", "values": [{"measurement": "Ka", "setting": "[5]", "result": 80000, "unit": "M⁻¹"}, {"measurement": "Kd", "setting": "[5]", "result": 20, "unit": "µM"}, {"measurement": "dH", "setting": "[5]", "result": -3.2, "unit": "kcal/mol"}]}
{"molecule": "plexin-B1 RBD L1815Y (domain or fragment) YRPLTLNALLAVGPGAGEAQGVPVKVLDCDTISQAKEKMLDQLYKGVPLTQRPDPRTLDVEWRSGVAGHYILSDEDVTSEVQGLWRRLNTLQHYKVPDGATVALVPC", "values": [{"measurement": "Ka", "setting": "[5]", "result": 90000, "unit": "M⁻¹"}, {"measurement": "Kd", "setting": "[5]", "result": 9.8, "unit": "µM"}, {"measurement": "dH", "setting": "[5]", "result": -1.6, "unit": "kcal/mol"}, {"measurement": "Ka", "setting": "[6]", "result": 70000, "unit": "M⁻¹"}, {"measurement": "Kd", "setting": "[6]", "result": 14.1, "unit": "µM"}, {"measurement": "dH", "setting": "[6]", "result": -1.4, "unit": "kcal/mol"}]}
{"molecule": "plexin-D1 Rho GTPase binding domain (RBD), residues 1553-1678 (domain or fragment, human, UniProt Q9Y4D7 1553-1678, looked up) AKPRNLNVSFQGCGMDSLSVRAMDTDTLTQVKEKILEAFCKNVPYSQWPRAEDVDLEWFASSTQSYILRDLDDTSVVEDGRKKLNTLAHYKIPEGASLAMSLIDKKDNTLGRVKDLDTEKYFHLVL", "values": [{"measurement": "Ka", "setting": "[5]", "result": 60000, "unit": "M⁻¹"}, {"measurement": "Kd", "setting": "[5]", "result": 16.6, "unit": "µM"}, {"measurement": "dH", "setting": "[5]", "result": -0.4, "unit": "kcal/mol"}]}
